Patent US7919584B1, “Methods and compositions for diagnosis and treatment of asthma” (Arbor Vita Corporation, priority 2005, dated 2011)
Ends that are not written are not given here. Peptide text beside a SMILES is read from it. * marks the point of attachment. Biotin = O=C1N[C@H]2[C@H](CS[C@H]2CCCCC(=O)*)N1

What was measured:
GORASP1 d1 = biological target: T1, GORASP1 d1 (Homo sapiens, UniProt Q9BQQ3); assay: modified G assay titration, peptide vs constant GST-PDZ domain fusion; format: binding
T1 construct: made in house; host or cells: E. coli (DH5α, BL21 or JM109)
Procedure: (§1) A Nunc Maxisorp 96 well Immunoplate (Nunc cat#62409-002) was coated with 100 μl of 5 μg/ml goat anti-GST polyclonal antibody (Amersham Pharmacia cat#27-457-01) and incubated overnight at 4° C. The plate was blocked by addition of 200 μl Assay Buffer (2% bovine serum albumin in PBS, pH 7.4) for 1 to 2 hours at room temperature, then washed three times in Assay Buffer.
(§2) 50 μl per well of GST-PDZ fusion proteins (5 μg/ml in Assay Buffer), or, as a negative control, GST polypeptide alone, was added to the plate, and incubated for 1 to 2 hours at 4° C.
(§3) Biotinylated peptides were prepared in Assay Buffer, in half the volume required at 40 μM. HRP-Streptavidin (Zymed cat#43-4323) was diluted 1:1000 in another half volume of Assay Buffer, then mixed with the peptides. The peptide-HRP mixtures were incubated for 20 minutes at room temperature. […]
(§4) The plate was then washed five times with room temperature PBS, and developed by addition of 100 μl/well of HRP substrate solution (3,3′,5,5′, tetramethylbensidine (TMB) (Dako cat#S1600)) for a maximum of 30 minutes in the dark at room temperature. The reaction of HRP and its substrate was terminated by addition of 100 μl of 0.18 M H2SO4 (Sigma cat#S1526), and the absorbance of each well of the plate was read at 450 nm.

KIAA1284 = biological target: T2, KIAA1284 (Homo sapiens, UniProt Q9ULD6); assay: as above; format: binding
T2 construct: made in house; host or cells: E. coli (DH5α, BL21 or JM109)
T2 sequence (Q9ULD6 with tags, fused parts or gaps): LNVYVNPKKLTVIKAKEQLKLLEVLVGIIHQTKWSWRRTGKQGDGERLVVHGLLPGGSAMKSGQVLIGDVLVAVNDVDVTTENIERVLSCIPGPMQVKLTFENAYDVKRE
Procedure: as §1, §2, §3, §4

[1] = biological target: T3, GST-TIP2 PDZ domain fusion protein (human, UniProt O14908 118-223); assay: modified G assay, peptide titrated against a constant amount of immobilized GST-PDZ fusion; Hill fit
T3 construct: domain: PDZ domain; not shown: glutathione-S transferase (GST) encoded by the pGEX-3X vector (Pharmacia); short vector-encoded linker
T3 sequence (looked up): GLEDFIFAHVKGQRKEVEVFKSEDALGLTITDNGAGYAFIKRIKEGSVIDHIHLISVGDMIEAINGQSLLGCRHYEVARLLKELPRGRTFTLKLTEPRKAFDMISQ

[2] = biological target: T4, GST-PSD95 d2 (PDZ domain 2) fusion protein (human, UniProt P78352 147-253); assay: as above
T4 construct: domain: d2; not shown: glutathione-S transferase (GST) encoded by the pGEX-3X vector (Pharmacia); short vector-encoded linker

[3] = biological target: T5, GST-GORASP1 (PDZ #1) fusion protein (human, UniProt P08515 1-218 = GST); assay: as above
T5 construct: also called GORASP1 d1; GRASP1; not shown: short vector-encoded linker (Gly-Ile, Gly-Ile-Pro-Gly-Asn or Gly-Ile-Pro, by cloning site); which one in this construct

[4] = biological target: T6, GST-KIAA1284 PDZ domain fusion protein (human, UniProt P08515 1-218 = GST); assay: as above
T6 construct: also called PDZK6; not shown: short vector-encoded linker
T6 sequence (P08515 1-218, tags or fused parts left off): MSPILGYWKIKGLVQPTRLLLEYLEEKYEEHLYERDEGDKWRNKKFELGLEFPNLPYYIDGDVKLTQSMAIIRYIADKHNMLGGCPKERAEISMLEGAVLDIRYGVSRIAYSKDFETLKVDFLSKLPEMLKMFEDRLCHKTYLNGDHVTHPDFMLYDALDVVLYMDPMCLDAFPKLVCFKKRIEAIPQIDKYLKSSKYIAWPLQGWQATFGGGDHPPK

T4 sequence (P78352 147-253): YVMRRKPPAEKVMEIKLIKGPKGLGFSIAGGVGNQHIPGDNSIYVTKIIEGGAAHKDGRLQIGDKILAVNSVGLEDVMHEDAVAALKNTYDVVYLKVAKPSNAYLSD
T5 sequence (P08515 1-218, tags or fused parts left off): as the sequence (P08515 1-218, tags or fused parts left off) above
T1 sequence (Q9BQQ3 1-110): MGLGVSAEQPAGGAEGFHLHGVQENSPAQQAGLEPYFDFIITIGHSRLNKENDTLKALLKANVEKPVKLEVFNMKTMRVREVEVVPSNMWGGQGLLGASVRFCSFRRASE

Molecule	EC50 (GORASP1 d1) [nM]	EC50 (KIAA1284) [nM]	EC50 [1] [nM]	EC50 [2] [nM]	EC50 [3] [nM]	EC50 [4] [nM]
CC[C@H](C)[C@H](NC(=O)[C@H](CCCNC(=N)N)NC(=O)[C@H](CCCNC(=N)N)NC(=O)[C@H](CCCNC(=N)N)NC(=O)[C@H](CCC(N)=O)NC(=O)[C@H](CCCNC(=N)N)NC(=O)[C@H](CCCNC(=N)N)NC(=O)[C@H](CCCCN)NC(=O)[C@H](CCCCN)NC(=O)[C@H](CCCNC(=N)N)NC(=O)CNC(=O)[C@H](Cc1ccc(O)cc1)NC(=O)CCCC[C@@H]1SC[C@@H]2NC(=O)N[C@@H]21)C(=O)NCC(=O)N[C@@H](CCC(=O)O)C(=O)N[C@@H](CC(C)C)C(=O)N[C@@H](CCC(N)=O)C(=O)N[C@@H](CC(C)C)C(=O)N[C@@H](CO)C(=O)N[C@H](C(=O)N[C@@H](C)C(=O)O)[C@@H](C)CC [Tat-hCLCA1] (HELM PEPTIDE1{[O=C1N[C@H]2[C@H](CS[C@H]2CCCCC(=O)[*:2])N1].Y.G.R.K.K.R.R.Q.R.R.R.I.G.E.L.Q.L.S.I.A}$$$$V2.0)	120	74	–	–	–	–
Biotin-YGRKKRRQRRRIGELQLSIA (Synthetic peptide, HPLC purified; pre-mixed with HRP-streptavidin in the modified G assay; also called Tat-hCLCA1 (SIA))	–	–	1100	3100	120	74
